Drawing on PMC3972249, this text covers Km for two proteins.

A word on the Km: it is the substrate concentration at which the rate is half of its maximum.

Changes are numbered by the printed parent chain. Numbers in names are those of the source.

Substrate in this data set: Nc1ncnc2c1ncn2[C@@H]1O[C@H](COP(=O)(O)OP(=O)(O)OP(=O)(O)O)[C@@H](O)[C@H]1O
Put plainly: KM from ATP titration in ATP:PPi exchange assay. The format is biochemical, Homo sapiens.

B1: NEDD8-activating enzyme (NAE), catalytic subunit UBA3 I310N (Homo sapiens; I310N) (protein)
chain: ADGEEPEKKRRRIEELLAEKMAVDGGCGDTGDWEGRWNHVKKFLERSGPFTHPDFEPSTESLQFLLDTCKVLVIGAGGLGCELLKNLALSGFRQIHVIDMDTIDVSNLNRQFLFRPKDIGRPKAEVAAEFLNDRVPNCNVVPHFNKIQDFNDTFYRQFHIIVCGLDSIIARRWINGMLISLLNYEDGVLDPSSIVPLIDGGTEGFKGNARVILPGMTACIECTLELYPPQVNFPMCTIASMPRLPEHCIEYVRMLQWPKEQPFGEGVPLDGDDPEHIQWIFQKSLERASQYNIRGVTYRLTQGVVKRINPAVASTNAVIAAVCATEVFKIATSAYIPLNNYLVFNDVDGLYTYTFEAERKENCPACSQLPQNIQFSPSAKLQEVLDYLTNSASLQMKSPAITATLEGKNRTLYLQSVTSIEERTRPNLSKTLKELGLVDGQELAVADVTTPQTVLFKLHFTS
notes: recombinant human UBA3 (isoform 1) in NAE complex; with NAEα (APPBP1); NEDD8
B1: the Km was 20 µM.

B2: NEDD8-activating enzyme (NAE), catalytic subunit UBA3 (NAEβ) (Homo sapiens) (protein)
chain: B1 chain with N309I
notes: as for B1
As for B2, the Michaelis-Menten constant (Km) was 80 µM.
